This note sets out measurements from patent US20260022175A1 (Chugai, published 2026).

The target of experiment [1] is T1, human C1q protein (Calbiochem) (human, UniProt P02745 23-245; P02746 28-253; P02747 29-245).
T1 construct: bought; also called hC1q
The experiment is described as follows: ELISA, antibody on the plate, hC1q 3 µg/mL. Background: In an ELISA, binding on a coated surface is turned into a signal by an enzyme label.

For experiment [2], the target named is T2, human CTLA4 (human).
T2 construct: also called hCTLA4; hCTLA4-His-BAP
Kind of experiment: SPR Biacore T200, 37C, antibody captured, ATP 1 uM. (In general: In SPR one partner is held on a chip, and binding of the other changes the refractive index at the surface.)

In experiment [3] the target is T2, human CTLA4. Kind of experiment: SPR Biacore T200, 37C, antibody captured, ATP 1 uM. This is another data set of the same source.
In experiment [4] the target is T3, mouse CTLA4 extracellular region linked with a His-tag (mCTLA4-His) (mouse, UniProt P09793 36-161). The experiment is described as follows: SPR Biacore T200, 37C, antibody captured, ATP 1 uM.
The target of experiment [5] is T4, cynomolgus monkey CTLA4 (CyCTLA4-His-BAP) (cynomolgus monkey). Kind of experiment: SPR Biacore T200, 37C, antibody captured, ATP 1 uM.
For experiment [6], the target named is T2, human CTLA4. The experiment is described as follows: SPR Biacore T200, 37C, antibody captured, ATP 10 uM.
The target in experiment [7] is T2, human CTLA4. Kind of experiment: SPR Biacore T200, 37C, antibody captured, ADP 10 uM.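 Also: antibodies held on a Protein G CM3 chip, human CTLA4 as analyte in ACES pH 7.4 buffer, rates from a global 1:1 Langmuir fit, Kd from rates or steady state.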
In experiment [8] the target is T2, human CTLA4. The experiment is described as follows: SPR Biacore T200, 37C, antibody captured, AMP 10 uM.
Experiment [9] addresses T2, human CTLA4. Kind of experiment: SPR Biacore T200, 37C, antibody captured, ATP 10 uM. The source holds these as a separate data set.
Experiment [10] addresses T2, human CTLA4. Described as above. This is another data set of the same source.
Experiment [11] deals with T3, mouse CTLA4 extracellular region linked …. The experiment is described as above.
Experiment [12] concerns the target T4, cynomolgus monkey CTLA4 …. The description is as above.
In experiment [13] the target is T2, human CTLA4. Kind of experiment: SPR Biacore T200, 37C, antibody captured, ATP 100 uM.
The target in experiment [14] is T3, mouse CTLA4 extracellular region linked …. Described as above.
Experiment [15] addresses T4, cynomolgus monkey CTLA4 …. The experiment is described as above.
For experiment [16], the target named is T2, human CTLA4. Kind of experiment: SPR Biacore T200, 37C, antibody captured, no ATP, steady state model.
Experiment [17] addresses T5, hCTLA4-His-BAP (human CTLA4 extracellular region with C-terminal His-tag and BAP-tag) (human, biotin on the BAP-tag).
T5 construct: also called hCTLA4-His-Biotin
Kind of experiment: SPR 37C, ATP 10 µM; ATP 10 µM.

For experiment [18], the target named is T5, hCTLA4-His-BAP (human CTLA4 …). Kind of experiment: SPR 37C, ATP 100 µM; ATP 100 µM.
Experiment [19] shares this target. Kind of experiment: SPR 37C, hCTLA4 1000 nM, no ATP; no ATP; binding amount at 1000 nM hCTLA4.
For experiment [20] the target is unchanged. Kind of experiment: SPR 37C, hCTLA4 1000 nM, ATP 1 µM; ATP 1 µM; binding amount at 1000 nM hCTLA4.
Experiment [21] shares this target. Kind of experiment: SPR 37C, hCTLA4 1000 nM, ATP 10 µM; ATP 10 µM; binding amount at 1000 nM hCTLA4.
For experiment [22] the target is unchanged. The experiment is described as follows: SPR 37C, hCTLA4 1000 nM, ATP 100 µM; ATP 100 µM; binding amount at 1000 nM hCTLA4.

Changes are numbered by the printed parent chain.

T1 sequence (P02745 23-245 limits assumed, chain 1 of 3): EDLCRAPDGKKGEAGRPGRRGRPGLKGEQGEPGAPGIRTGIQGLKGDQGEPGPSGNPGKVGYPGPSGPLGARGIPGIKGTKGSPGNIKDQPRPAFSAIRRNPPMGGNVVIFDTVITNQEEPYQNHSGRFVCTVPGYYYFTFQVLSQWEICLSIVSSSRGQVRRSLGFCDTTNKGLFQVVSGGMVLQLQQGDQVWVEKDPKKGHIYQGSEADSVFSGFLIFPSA
T1 sequence (P02746 28-253 limits assumed, chain 2 of 3): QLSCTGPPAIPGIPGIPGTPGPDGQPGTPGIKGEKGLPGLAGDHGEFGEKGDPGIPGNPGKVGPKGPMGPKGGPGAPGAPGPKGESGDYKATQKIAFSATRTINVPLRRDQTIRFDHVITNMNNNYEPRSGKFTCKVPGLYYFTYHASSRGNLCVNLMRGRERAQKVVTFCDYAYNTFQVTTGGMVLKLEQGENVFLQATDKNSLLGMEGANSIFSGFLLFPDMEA
T1 sequence (P02747 29-245 limits assumed, chain 3 of 3): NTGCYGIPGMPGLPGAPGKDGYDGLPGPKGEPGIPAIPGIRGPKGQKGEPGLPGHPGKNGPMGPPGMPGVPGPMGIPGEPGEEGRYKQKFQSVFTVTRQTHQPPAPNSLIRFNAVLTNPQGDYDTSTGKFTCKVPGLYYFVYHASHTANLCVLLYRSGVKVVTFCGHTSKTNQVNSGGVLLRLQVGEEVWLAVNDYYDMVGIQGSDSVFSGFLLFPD
T5 sequence (chain, as listed by the source limits assumed): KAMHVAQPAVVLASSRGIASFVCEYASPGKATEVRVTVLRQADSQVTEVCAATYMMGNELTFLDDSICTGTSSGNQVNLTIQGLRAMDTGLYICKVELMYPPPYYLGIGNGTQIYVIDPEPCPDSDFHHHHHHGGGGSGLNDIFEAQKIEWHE
T4 sequence (chain, as listed by the source limits assumed): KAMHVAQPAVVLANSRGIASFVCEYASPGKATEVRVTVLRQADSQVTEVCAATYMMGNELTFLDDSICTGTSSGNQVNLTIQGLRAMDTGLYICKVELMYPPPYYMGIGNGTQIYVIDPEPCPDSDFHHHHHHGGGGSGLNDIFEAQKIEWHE

B1: H240-Kn462/L73-k0//H240-Hl441/L73-k0 (antibody)
heavy 1: QDQLVQSGAEVKKPGASVKVSCKASGFNIKDTYIQWVRQAPGQGLEWMGRIDPLRKQTKYREKFEGRVTITADTSTNTAYMELSSLRSEDTAVYYCVRSGREFDYWGQGTLVTVSSASTKGPSVFPLAPSSKSTSGGTAALGCLVKDYFPEPVTVSWNSGALTSGVHTFPAVLQSSGLYSLSSVVTVPSSSLGTQTYICNVNHKPSNTKVDKKVEPKSCDKTHTCPPCPAPEFQWGPMVFLFPPKPKDVLMISRTPEVTCVVVDVSDEEPEVKFNWYVDGVEVHNAKTKPREEQYNATYRVVSVLPVLHQDWLNGKEYKCKVSNDALPAPIEKTISKAKGQPREPQVCTLPPSRDELTKNQVSLWCLVKGFYPSDIAVEWESNGQPENNYKTTPPVLDSDGSFFLYSKLTVDKSRWQQGNVFSCSVMHEALHNHYTQKSLSLSP
heavy 2: QDQLVQSGAEVKKPGASVKVSCKASGFNIKDTYIQWVRQAPGQGLEWMGRIDPLRKQTKYREKFEGRVTITADTSTNTAYMELSSLRSEDTAVYYCVRSGREFDYWGQGTLVTVSSASTKGPSVFPLAPSSKSTSGGTAALGCLVKDYFPEPVTVSWNSGALTSGVHTFPAVLQSSGLYSLSSVVTVPSSSLGTQTYICNVNHKPSNTKVDKKVEPKSCDKTHTCPPCPAPELLAGPSVFLFPPKPKDVLMISRTPEVTCVVVDVSHEEPEVKFNWYVDGVEVHNAKTKPREEQYNATYRVVSVLPVLHQDWLNGKEYKCKVSNDALPAPIEETISKAKGQPREPQVYTLPPSRCELTKNQVSLSCAVKGFYPSDIAVEWESNGQPENNYKTTPPVLDSDGSFFLVSKLTVDKSRWQQGNVFSCSVMHEALHNHYTQKSLSLSP
light: DIQMTQSPSSLSASVGDRVTITCRASQDIHKYIAWYQQKPGQAPRLLIQYTSTLQPGVPSRFSGSGSGTDYTFTISSLQPEDIATYYCLQYEQLRTFGGGTKVEIKRTVAAPSVFIFPPSDEQLKSGTASVVCLLNNFYPREAKVQWKVDNALQSGNSQESVTEQDSKDSTYSLSSTLTLSKADYEKHKVYACEVTHQGLSSPVTKSFNRGEC
notes: also called EGL-ART5; ART5; copies: 1 + 1 + 2
In the case of B1, the binding result in experiment [1] is “binds”.

B2: H240-Kn496/L73-k0//H240-Hl516/L73-k0 (antibody)
heavy 1: B1 heavy 1 with D325K
heavy 2: B1 heavy 2 with A235G
light: B1 light
notes: also called EGL-ART11; ART11; copies: 1 + 1 + 2
B2: the binding result in [1] is reported as “binds”.

B3: H240-Kn461/L73-k0//H240-Hl443/L73-k0 (antibody)
heavy 1: B1 heavy 1 with I331E
heavy 2: B1 heavy 2 with I331E
light: B1 light
notes: also called EGL-ART8; ART8; copies: 1 + 1 + 2
As to B3, the binding result in experiment [1] was “binds”.

B4: H240-Kn443/L73-k0//H240-Hl408/L73-k0 (antibody)
heavy 1: B1 heavy 1 with V249T, P306T
heavy 2: B1 heavy 2 with V249T, P306T
light: B1 light
notes: also called EGL-ART3; ART3; copies: 1 + 1 + 2
Take B4: the binding result in [1] is “binds”.

B5: H240-Kn494/L73-k0//H240-Hl514/L73-k0 (antibody)
heavy 1: B1 heavy 1 with D325K, I331E
heavy 2: B1 heavy 2 with A235G, I331E
light: B1 light
notes: also called EGL-ART10; ART10; copies: 1 + 1 + 2
B5: the binding result in experiment [1] is on record as “binds”.

B6: 04H1389-G1m/04L1615-k0MT (antibody, human IgG1, kappa)
heavy: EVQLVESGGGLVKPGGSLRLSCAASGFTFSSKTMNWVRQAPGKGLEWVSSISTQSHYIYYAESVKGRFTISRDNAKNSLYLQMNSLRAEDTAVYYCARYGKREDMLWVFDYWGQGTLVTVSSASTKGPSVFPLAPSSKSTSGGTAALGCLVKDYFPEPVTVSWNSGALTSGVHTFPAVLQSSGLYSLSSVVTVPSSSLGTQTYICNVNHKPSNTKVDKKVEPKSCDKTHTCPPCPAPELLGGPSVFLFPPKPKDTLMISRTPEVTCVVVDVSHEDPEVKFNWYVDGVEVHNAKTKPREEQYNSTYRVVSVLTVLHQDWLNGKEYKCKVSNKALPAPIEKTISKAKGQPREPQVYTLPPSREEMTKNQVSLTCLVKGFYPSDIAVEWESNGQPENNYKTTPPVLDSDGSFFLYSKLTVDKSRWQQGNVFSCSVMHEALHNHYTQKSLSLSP
light: DIVMTQSPLSLPVTPGEPASISCQGPSTGVGDYNYVHWYQQKPGQAPRLLIYFTSKKPSGVPDRFSGSGSGTDFTLKISRVEAEDVGVYYCQTYAAPLGPMFGQGTKLEIKRTVAAPSVFIFPPSDEQLKSGTASVVCLLNNFYPREAKVQWKVDNALQSGNSQESVTEQDSKDSTYSLSSTLTLSKADYEKHKVYACEVTHQGLSSPVTKSFNRGEC
For the molecule B6, the Kd with human CTLA4 [2] was 72 nM; with human CTLA4 [3] it was 58 nM; in experiment [4], 160 nM; in experiment [5], 110 nM; with human CTLA4 [6], 15 nM; in the experiment with human CTLA4 [7], 17 nM. For the same molecule, the Kd in the experiment with human CTLA4 [8] was 55 nM; with human CTLA4 [9], 11 nM; with human CTLA4 [10] it was 12 nM; in experiment [11], 26 nM; in [12] it was 21 nM; with human CTLA4 [13] it was 5 nM. The Kd in experiment [14] stood at 10 nM; in experiment [15], 9.3 nM; with human CTLA4 [16] it was 2000 nM. For the same molecule, the figures for the koff with human CTLA4 [7], in the experiment with human CTLA4 [8] and with human CTLA4 [9] were 0.003 s⁻¹, 0.0097 s⁻¹ and 0.0015 s⁻¹, respectively. Moreover, the kon with human CTLA4 [7] was determined as 180000 M⁻¹ s⁻¹; with human CTLA4 [8] it was 170000 M⁻¹ s⁻¹; with human CTLA4 [9], 130000 M⁻¹ s⁻¹.

B7: 04H1208-G1m/04L1086-lam1 (antibody, human IgG1, lambda, V domains shown)
VH: EVQLVESGGGLVKPGGSLRLSCAASGFTFSSKTMNWVRQAPGKGLEWVSSISTRSGYIYYARSVKGRFTISRDNAKNSLYLQMNSLRAEDTAVYYCARYGKREDMLWVFDYWGQGTLVTVSS
VL: QSALTQPPSASGSPGQTVTISCDGPSTGVGDYNYVHWYQQHPGKAPKLMIYFTSKKPSGVPDRFSGSKSGNTASLTVSGLQAEDEADYFCQTYAAPLGPMFGGGTKLTVLG
For the molecule B7, the Kd in [17] was 450 nM; in [18], 74 nM. In addition, the “Binding to Human CTLA4” value in experiment [19] is 0.005 per unit amount of antibody; in [20] it was 0.03 per unit amount of antibody; in experiment [21] it was 0.108 per unit amount of antibody; in [22] it was 0.17 per unit amount of antibody.

B8: 04H1654-G1m/04L1612-lam1 (antibody, human IgG1, lambda)
heavy: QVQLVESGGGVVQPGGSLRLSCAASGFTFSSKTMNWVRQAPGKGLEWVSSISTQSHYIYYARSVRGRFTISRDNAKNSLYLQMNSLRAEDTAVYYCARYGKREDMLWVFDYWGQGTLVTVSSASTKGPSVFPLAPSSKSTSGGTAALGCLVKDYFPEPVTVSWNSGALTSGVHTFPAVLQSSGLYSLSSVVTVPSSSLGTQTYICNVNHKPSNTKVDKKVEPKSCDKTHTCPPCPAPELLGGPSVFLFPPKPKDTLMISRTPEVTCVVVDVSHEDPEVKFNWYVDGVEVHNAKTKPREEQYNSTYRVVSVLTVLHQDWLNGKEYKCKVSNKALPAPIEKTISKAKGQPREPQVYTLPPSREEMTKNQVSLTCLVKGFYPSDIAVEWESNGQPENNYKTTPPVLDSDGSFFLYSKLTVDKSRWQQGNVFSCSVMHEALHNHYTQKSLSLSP
light: QSALTQPPSASGSPGQSVTISCEGPSTGVGDYTYVHWYQQHPGKAPKLMIYFTSKKPSGVPDRFSGSKSGNTASLTVSGLQAEDEADYYCQTYAAPLGPMFGGGTKLTVLGQPKAAPSVTLFPPSSEELQANKATLVCLISDFYPGAVTVAWKADSSPVKAGVETTTPSKQSNNKYAASSYLSLTPEQWKSHRSYSCQVTHEGSTVEKTVAPTECS
Regarding B8, the Kd with human CTLA4 [2] stood at 200 nM; with human CTLA4 [3] it was 170 nM; in experiment [4], 390 nM; in experiment [5], 310 nM; in the experiment with human CTLA4 [6], 33 nM; with human CTLA4 [7] it was 56 nM. In addition, the Kd was 170 nM with human CTLA4 [8]; 36 nM with human CTLA4 [9]; 30 nM in the experiment with human CTLA4 [10]; 48 nM in [11]; 54 nM in [12]; 11 nM with human CTLA4 [13]. The figures for the Kd (in experiment [14]; in experiment [15]; with human CTLA4 [16]) were 18 nM, 21 nM and 4800 nM, respectively. Besides, the koff in the experiment with human CTLA4 [7] amounted to 0.005 s⁻¹; in the experiment with human CTLA4 [8], 0.016 s⁻¹; with human CTLA4 [9], 0.0027 s⁻¹. Further, the kon with human CTLA4 [7] is 89000 M⁻¹ s⁻¹; with human CTLA4 [8] it was 94000 M⁻¹ s⁻¹; with human CTLA4 [9], 74000 M⁻¹ s⁻¹.

B9: 04H1656-G1m/04L1610-lam1 (antibody, human IgG1, lambda)
heavy: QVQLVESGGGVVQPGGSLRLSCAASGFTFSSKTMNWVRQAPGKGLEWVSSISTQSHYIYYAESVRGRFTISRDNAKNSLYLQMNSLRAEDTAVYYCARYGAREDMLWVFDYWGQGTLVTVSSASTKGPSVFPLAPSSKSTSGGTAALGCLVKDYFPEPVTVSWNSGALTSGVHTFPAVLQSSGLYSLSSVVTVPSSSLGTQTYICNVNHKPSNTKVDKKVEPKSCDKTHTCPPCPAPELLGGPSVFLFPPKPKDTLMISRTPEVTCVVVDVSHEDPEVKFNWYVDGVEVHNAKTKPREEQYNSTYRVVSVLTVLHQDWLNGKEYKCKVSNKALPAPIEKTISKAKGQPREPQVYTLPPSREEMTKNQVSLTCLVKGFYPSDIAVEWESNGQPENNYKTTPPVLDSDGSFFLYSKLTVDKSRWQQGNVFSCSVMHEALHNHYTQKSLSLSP
light: B8 light with T33N, Y34W
For the molecule B9, the Kd with human CTLA4 [2] was found to be 98 nM; in the experiment with human CTLA4 [3] it was 79 nM; in [4], 230 nM; in experiment [5] it was 120 nM; with human CTLA4 [6], 19 nM; in the experiment with human CTLA4 [7], 25 nM. Further, the Kd was 82 nM with human CTLA4 [8]; 15 nM in the experiment with human CTLA4 [9]; 16 nM in the experiment with human CTLA4 [10]; 37 nM in [11]; 26 nM in [12]; 6.2 nM in the experiment with human CTLA4 [13]. For the same molecule, the Kd is 14 nM in experiment [14], 10 nM in experiment [15] and 2200 nM in the experiment with human CTLA4 [16]. Further, the dissociation rate constant (koff) is 0.0043 s⁻¹ with human CTLA4 [7], 0.014 s⁻¹ with human CTLA4 [8] and 0.0019 s⁻¹ with human CTLA4 [9]. The kon with human CTLA4 [7] stood at 170000 M⁻¹ s⁻¹; with human CTLA4 [8] it was 170000 M⁻¹ s⁻¹; with human CTLA4 [9], 130000 M⁻¹ s⁻¹.

The Kd is the concentration at which binding is half-saturated. The koff is a measure of how fast the partners let go of each other. As a reminder, the kon is the second-order rate constant of association.
